T1: MPDZ_5, O75970
T1 sequence (O75970 695-796, limits assumed, looked up): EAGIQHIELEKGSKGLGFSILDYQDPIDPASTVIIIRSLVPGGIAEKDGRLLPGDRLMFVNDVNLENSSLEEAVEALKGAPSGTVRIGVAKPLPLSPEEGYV

T2: DLG3_3, Q92796
T2 sequence (Q92796 374-475, limits assumed, looked up): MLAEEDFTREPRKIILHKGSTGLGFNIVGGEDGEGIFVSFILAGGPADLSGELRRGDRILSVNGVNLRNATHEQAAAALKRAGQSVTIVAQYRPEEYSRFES

T3: DLG3_2, Q92796
T3 sequence (Q92796 221-321, limits assumed, looked up): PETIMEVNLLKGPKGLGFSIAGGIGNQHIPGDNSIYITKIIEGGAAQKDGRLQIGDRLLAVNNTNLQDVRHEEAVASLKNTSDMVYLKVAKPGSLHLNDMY

T4: GRIP1_3, Q9Y3R0
T4 sequence (Q9Y3R0 247-346, limits assumed, looked up): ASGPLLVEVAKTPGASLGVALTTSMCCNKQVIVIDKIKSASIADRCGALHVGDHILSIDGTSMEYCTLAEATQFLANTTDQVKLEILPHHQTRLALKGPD

T5: ARHGEF11, O15085
T5 sequence (O15085 42-136, limits assumed, looked up): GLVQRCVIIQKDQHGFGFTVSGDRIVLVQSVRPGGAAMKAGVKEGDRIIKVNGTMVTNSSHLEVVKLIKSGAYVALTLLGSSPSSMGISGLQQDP

T6: RHPN1, Q8TCX5
T6 sequence (Q8TCX5 508-602, limits assumed, looked up): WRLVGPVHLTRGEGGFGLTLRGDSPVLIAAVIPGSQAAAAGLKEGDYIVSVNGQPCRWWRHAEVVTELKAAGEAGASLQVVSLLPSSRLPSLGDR

T7: SYNJ2BP, P57105
T7 sequence (P57105 8-110, limits assumed, looked up): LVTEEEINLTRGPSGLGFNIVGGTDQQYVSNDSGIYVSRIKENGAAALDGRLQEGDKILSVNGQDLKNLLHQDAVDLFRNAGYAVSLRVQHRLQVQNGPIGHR

T8: RADIL, Q96JH8
T8 sequence (Q96JH8 971-1071, limits assumed, looked up): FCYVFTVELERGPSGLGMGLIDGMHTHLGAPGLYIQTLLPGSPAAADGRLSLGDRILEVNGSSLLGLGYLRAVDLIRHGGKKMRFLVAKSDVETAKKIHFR

T9: LRRC7, Q96NW7
T9 sequence (Q96NW7 1440-1537, limits assumed, looked up): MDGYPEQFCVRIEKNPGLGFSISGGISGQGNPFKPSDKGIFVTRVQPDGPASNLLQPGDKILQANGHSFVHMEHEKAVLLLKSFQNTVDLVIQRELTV

T10: MPP7, Q5T2T1
T10 sequence (Q5T2T1 134-230, limits assumed, looked up): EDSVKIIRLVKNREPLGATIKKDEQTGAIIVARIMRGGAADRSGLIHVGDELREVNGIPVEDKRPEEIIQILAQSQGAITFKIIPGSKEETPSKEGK

T11: DFNB31_1, Q9P202
T11 sequence (Q9P202 135-233, limits assumed, looked up): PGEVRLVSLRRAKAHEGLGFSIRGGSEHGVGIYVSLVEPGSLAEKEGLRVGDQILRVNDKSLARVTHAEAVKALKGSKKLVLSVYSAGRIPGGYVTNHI

T12: SIPA1L2, Q9P2F8
T12 sequence (Q9P2F8 945-1036, limits assumed, looked up): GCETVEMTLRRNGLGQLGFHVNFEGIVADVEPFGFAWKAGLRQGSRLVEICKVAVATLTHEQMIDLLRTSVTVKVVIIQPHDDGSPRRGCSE

T13: CARD11, Q9BXL7
T13 sequence (Q9BXL7 662-765, limits assumed, looked up): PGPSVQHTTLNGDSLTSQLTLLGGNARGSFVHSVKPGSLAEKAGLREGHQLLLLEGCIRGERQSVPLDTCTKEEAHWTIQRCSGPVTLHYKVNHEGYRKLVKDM

B1: GPR12, P47775 (peptide)
chain: AQRARSPSDV
B2: SCN8A, Q9UQD0 (peptide)
chain: RQKEVRESKC
B3: ZSCAN30, Q86W11 (peptide)
chain: MQHQRTHTRV

What was measured:
Test in all cases: holdup assay
Design in all cases: key: below the threshold = too weak to quantify, mostly under pKd 3.1 to 4
Conditions in all cases: plain residues with an end cap or a label only (N-terminal biotin on a linker: ado-ado)
MPDZ_5, O75970 = biological target: T1, MPDZ_5, O75970
FRMPD2_3, Q68DX3 = biological target: FRMPD2_3, Q68DX3
Chain of FRMPD2_3, Q68DX3 (Q68DX3 1073-1166): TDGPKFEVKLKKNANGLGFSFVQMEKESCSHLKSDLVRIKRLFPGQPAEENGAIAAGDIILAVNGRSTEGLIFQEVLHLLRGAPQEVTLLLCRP

ARHGEF12, Q9NZN5-2 = biological target: ARHGEF12, Q9NZN5-2
Chain of ARHGEF12, Q9NZN5-2 (Q9NZN5 other isoform, or with tags, fused parts or gaps): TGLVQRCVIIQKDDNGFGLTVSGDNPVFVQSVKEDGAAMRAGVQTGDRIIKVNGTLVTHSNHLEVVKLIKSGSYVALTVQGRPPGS

NHERF4_2, Q86UT5 = biological target: NHERF4_2, Q86UT5
Chain of NHERF4_2, Q86UT5 (Q86UT5 220-308): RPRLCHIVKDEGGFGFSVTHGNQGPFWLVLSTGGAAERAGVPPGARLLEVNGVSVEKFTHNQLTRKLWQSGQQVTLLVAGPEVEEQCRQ

Inadl_1, Q8NI35 = biological target: Inadl_1, Q8NI35
Chain of Inadl_1, Q8NI35 (Q8NI35 113-229): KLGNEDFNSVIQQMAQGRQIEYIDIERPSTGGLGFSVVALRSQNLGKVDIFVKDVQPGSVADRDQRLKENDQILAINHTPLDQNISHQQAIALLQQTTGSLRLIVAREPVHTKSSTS

DLG3_3, Q92796 = biological target: T2, DLG3_3, Q92796
DLG3_2, Q92796 = biological target: T3, DLG3_2, Q92796
TJP1_3, Q07157 = biological target: TJP1_3, Q07157
Chain of TJP1_3, Q07157 (Q07157 416-512): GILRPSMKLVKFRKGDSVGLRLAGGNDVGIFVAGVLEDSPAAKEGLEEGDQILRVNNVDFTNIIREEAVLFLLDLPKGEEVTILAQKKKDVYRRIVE

GRIP1_3, Q9Y3R0 = biological target: T4, GRIP1_3, Q9Y3R0
MAGI2_2, Q86UL8 = biological target: MAGI2_2, Q86UL8
Chain of MAGI2_2, Q86UL8 (Q86UL8 410-522): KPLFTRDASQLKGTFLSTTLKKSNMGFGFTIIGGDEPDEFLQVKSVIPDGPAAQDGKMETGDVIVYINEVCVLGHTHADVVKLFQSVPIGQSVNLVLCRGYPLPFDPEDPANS

ARHGEF11, O15085 = biological target: T5, ARHGEF11, O15085
RHPN1, Q8TCX5 = biological target: T6, RHPN1, Q8TCX5
SYNJ2BP, P57105 = biological target: T7, SYNJ2BP, P57105
RADIL, Q96JH8 = biological target: T8, RADIL, Q96JH8
GRIP2_5, Q9C0E4 = biological target: GRIP2_5, Q9C0E4
Chain of GRIP2_5, Q9C0E4 (Q9C0E4 544-642): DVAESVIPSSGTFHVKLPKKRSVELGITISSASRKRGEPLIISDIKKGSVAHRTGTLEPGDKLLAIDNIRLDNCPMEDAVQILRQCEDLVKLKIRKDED

GRIP2_6, Q9C0E4 = biological target: GRIP2_6, Q9C0E4
Chain of GRIP2_6, Q9C0E4 (Q9C0E4 648-740): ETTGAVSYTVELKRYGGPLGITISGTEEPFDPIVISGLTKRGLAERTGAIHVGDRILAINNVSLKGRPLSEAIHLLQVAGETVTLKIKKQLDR

LRRC7, Q96NW7 = biological target: T9, LRRC7, Q96NW7
SNX27, Q96L92 = biological target: SNX27, Q96L92
HTRA1, Q92743 = biological target: HTRA1, Q92743
Chain of HTRA1, Q92743 (Q92743 360-477): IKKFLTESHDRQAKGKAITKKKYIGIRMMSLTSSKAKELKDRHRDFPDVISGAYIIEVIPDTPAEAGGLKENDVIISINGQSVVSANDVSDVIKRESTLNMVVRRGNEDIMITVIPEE

Inadl_6, Q8NI35 = biological target: Inadl_6, Q8NI35
Chain of Inadl_6, Q8NI35 (Q8NI35 1058-1167): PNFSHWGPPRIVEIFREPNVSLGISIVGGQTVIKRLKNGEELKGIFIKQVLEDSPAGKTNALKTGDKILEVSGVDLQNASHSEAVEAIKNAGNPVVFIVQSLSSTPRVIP

MPP7, Q5T2T1 = biological target: T10, MPP7, Q5T2T1
DFNB31_1, Q9P202 = biological target: T11, DFNB31_1, Q9P202
SIPA1L2, Q9P2F8 = biological target: T12, SIPA1L2, Q9P2F8
CARD11, Q9BXL7 = biological target: T13, CARD11, Q9BXL7

Binder | pKd (MPDZ_5, O75970) | pKd (FRMPD2_3, Q68DX3) | pKd (ARHGEF12, Q9NZN5-2) | pKd (NHERF4_2, Q86UT5) | pKd (Inadl_1, Q8NI35) | pKd (DLG3_3, Q92796) | pKd (DLG3_2, Q92796) | pKd (TJP1_3, Q07157) | pKd (GRIP1_3, Q9Y3R0) | pKd (MAGI2_2, Q86UL8) | pKd (ARHGEF11, O15085) | pKd (RHPN1, Q8TCX5) | pKd (SYNJ2BP, P57105) | pKd (RADIL, Q96JH8) | pKd (GRIP2_5, Q9C0E4) | pKd (GRIP2_6, Q9C0E4) | pKd (LRRC7, Q96NW7) | pKd (SNX27, Q96L92) | pKd (HTRA1, Q92743) | pKd (Inadl_6, Q8NI35) | also measured
B1 | below the threshold | below the threshold | below the threshold | below the threshold | below the threshold | below the threshold | 4.32 | below the threshold | below the threshold | 3.65 | below the threshold | below the threshold | 4.14 | below the threshold | below the threshold | below the threshold | below the threshold | below the threshold | below the threshold | below the threshold | pKd (MPP7, Q5T2T1): 3.59; pKd (DFNB31_1, Q9P202): below the threshold; pKd (SIPA1L2, Q9P2F8): below the threshold; pKd (CARD11, Q9BXL7): below the threshold
B2 | below the threshold | below the threshold | 3.64 | below the threshold | below the threshold | 3.58 | 4.1 | below the threshold | below the threshold | 4.02 | below the threshold | below the threshold | 4.23 | below the threshold | below the threshold | below the threshold | below the threshold | 5.19 | below the threshold | below the threshold | pKd (MPP7, Q5T2T1): below the threshold; pKd (DFNB31_1, Q9P202): 4.1; pKd (SIPA1L2, Q9P2F8): below the threshold; pKd (CARD11, Q9BXL7): below the threshold
B3 | below the threshold | 3.5 | 3.96 | below the threshold | below the threshold | 4.3 | 4.88 | below the threshold | below the threshold | 5.42 | 4.3 | 3.72 | 4.28 | 4.14 | below the threshold | below the threshold | below the threshold | 4.38 | 3.99 | below the threshold | pKd (MPP7, Q5T2T1): below the threshold; pKd (DFNB31_1, Q9P202): 3.81; pKd (SIPA1L2, Q9P2F8): below the threshold; pKd (CARD11, Q9BXL7): below the threshold

— paper PMC9482650, “Quantitative fragmentomics allow affinity mapping of interactomes” (Nature Communications, 2022)
